Laboratory results reported in US20160251438A1 (LUDWIG INSTITUTE FOR CANCER RESEARCH, published 2016).

What was measured:
human TGF-β1 (latent) = target: T1, human TGF-β1 (latent) (human, UniProt P01137 30-390); test: FACS, 293T + hTGFB1 only [cont.) B]
T1 construct: from transfected hTGFB1; also called hTGF-β1; hTGFB1
From the text: No latent TGF-β is detected on their surface with an anti-LAP antibody. Transfection of GARP or TGFB1 alone induces no or low surface LAP, respectively, whereas co-transfection of GARP and TGFB1 induces high surface LAP as a result of latent TGF-β1 binding and presentation by GARP (FIG. 14, part B, left histograms).

[1] = target: T2, chimera 141 / hTGF-β1 complex on the cell surface (Mus musculus, UniProt G3XA59); test: FACS, 293T, HA-tagged construct + hTGFB1
T2 construct: N-terminal part

[2] = target: T3, chimera 207 / hTGF-β1 complex on the cell surface (Mus musculus, UniProt G3XA59); test: FACS, 293T, HA-tagged construct + hTGFB1
T3 construct: N-terminal part

[3] = target: T4, chimera 265 / hTGF-β1 complex on the cell surface (Mus musculus, UniProt G3XA59); test: FACS, 293T, HA-tagged construct + hTGFB1
T4 construct: N-terminal part

[4] = target: T5, chimera 332 / hTGF-β1 complex on the cell surface (Mus musculus, UniProt G3XA59); test: FACS, 293T, HA-tagged construct + hTGFB1
T5 construct: N-terminal part

[5] = target: GARP M111T/A112G/T113M / TGF-β1 complex (human, UniProt Q14392 20-662; P01137 30-390); test: flow cytometry titration on transfected 293T cells; grade of Reduced avidity read by footnote 3
Protocol: (§1) Intensities of staining at each concentration of antibody relative to the maximal intensity measured at 5 μg/ml were determined as follows:
(§2) The relative staining intensities were plotted according to the concentration of antibody used for staining, and a non-linear regression analysis was used with the Prism software to determine an EC₅₀ value for binding of the antibody to the WT and to each of the various mutant GARP/TGF-β1 complexes. If the ratio between the EC₅₀ measured on the mutant and the EC₅₀ measured on the WT was >2, the mutation was considered to induce a reduced avidity for binding by the antibody. The ratio of EC₅₀ (mutant vs WT) for MHG-8 and LHG-10 are indicated below each mutation on FIG. 19, parts A and B, respectively.

[6] = target: GARP Y137H / TGF-β1 complex (human, UniProt Q14392 20-662; P01137 30-390); test: as above
Protocol: as §1, §2

[7] = target: GARP T162D / TGF-β1 complex (human, UniProt Q14392 20-662; P01137 30-390); test: as above
Protocol: as §1, §2

[8] = target: GARP R163E / TGF-β1 complex (human, UniProt Q14392 20-662; P01137 30-390); test: as above
Protocol: as §1, §2

[9] = target: GARP T165A / TGF-β1 complex (human, UniProt Q14392 20-662; P01137 30-390); test: as above
Protocol: as §1, §2

[10] = target: GARP R166M/H167E / TGF-β1 complex (human, UniProt Q14392 20-662; P01137 30-390); test: as above
Protocol: as §1, §2

[11] = target: GARP R170A / TGF-β1 complex (human, UniProt Q14392 20-662; P01137 30-390); test: as above
Chain of GARP R170A / TGF-β1 complex (Q14392 20-662 R170A limits assumed, chain 1 of 2): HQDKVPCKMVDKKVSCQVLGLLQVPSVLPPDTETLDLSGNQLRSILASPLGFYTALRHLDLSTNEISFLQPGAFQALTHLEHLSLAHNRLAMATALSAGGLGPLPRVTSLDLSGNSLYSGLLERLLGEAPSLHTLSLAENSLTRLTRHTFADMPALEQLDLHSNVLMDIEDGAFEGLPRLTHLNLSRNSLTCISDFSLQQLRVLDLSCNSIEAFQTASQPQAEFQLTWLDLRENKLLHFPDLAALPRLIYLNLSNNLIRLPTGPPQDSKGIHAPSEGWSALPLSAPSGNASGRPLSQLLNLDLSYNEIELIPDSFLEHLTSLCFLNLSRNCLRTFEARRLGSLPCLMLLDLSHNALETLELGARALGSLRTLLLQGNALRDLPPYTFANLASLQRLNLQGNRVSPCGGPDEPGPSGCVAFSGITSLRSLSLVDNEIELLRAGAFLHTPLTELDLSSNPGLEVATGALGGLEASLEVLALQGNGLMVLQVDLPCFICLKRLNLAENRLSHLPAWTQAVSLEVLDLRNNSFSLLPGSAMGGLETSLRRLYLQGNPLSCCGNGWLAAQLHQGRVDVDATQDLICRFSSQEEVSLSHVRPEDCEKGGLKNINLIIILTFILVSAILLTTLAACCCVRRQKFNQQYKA
Chain of GARP R170A / TGF-β1 complex (P01137 30-390 limits assumed, chain 2 of 2): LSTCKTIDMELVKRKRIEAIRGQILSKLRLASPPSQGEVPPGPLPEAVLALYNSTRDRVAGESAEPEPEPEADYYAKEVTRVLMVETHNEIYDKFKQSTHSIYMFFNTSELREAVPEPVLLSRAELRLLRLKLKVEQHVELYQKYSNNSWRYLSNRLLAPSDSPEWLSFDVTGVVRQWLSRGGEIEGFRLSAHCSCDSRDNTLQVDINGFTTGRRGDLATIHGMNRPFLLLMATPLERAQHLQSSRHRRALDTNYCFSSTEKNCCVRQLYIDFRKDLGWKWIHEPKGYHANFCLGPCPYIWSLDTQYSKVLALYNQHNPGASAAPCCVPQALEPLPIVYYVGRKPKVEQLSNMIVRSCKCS
Protocol: as §1, §2

[12] = target: GARP / TGF-β1 R58A complex (human, UniProt Q14392 20-662; P01137 30-390); test: as above
Chain of GARP / TGF-β1 R58A complex (Q14392 20-662 limits assumed, chain 1 of 2): as the sequence (Q14392 20-662 R170A limits assumed, chain 1 of 2) above, with A151R counted along it
Chain of GARP / TGF-β1 R58A complex (P01137 30-390 R58A limits assumed, chain 2 of 2): as the sequence (P01137 30-390 limits assumed, chain 2 of 2) above, with R29A counted along it
Protocol: as §1, §2

[13] = target: GARP / TGF-β1 Q269Y complex (human, UniProt Q14392 20-662; P01137 30-390); test: as above
Protocol: as §1, §2

[14] = target: GARP / TGF-β1 Q272Y complex (human, UniProt Q14392 20-662; P01137 30-390); test: as above
Protocol: as §1, §2

[15] = target: GARP / TGF-β1 Y336A complex (human, UniProt Q14392 20-662; P01137 30-390); test: as above
Protocol: as §1, §2

[16] = target: GARP / TGF-β1 S337A complex (human, UniProt Q14392 20-662; P01137 30-390); test: as above
Chain of GARP / TGF-β1 S337A complex (Q14392 20-662 limits assumed, chain 1 of 2): as the sequence (Q14392 20-662 R170A limits assumed, chain 1 of 2) above, with A151R counted along it
Chain of GARP / TGF-β1 S337A complex (P01137 30-390 S337A limits assumed, chain 2 of 2): as the sequence (P01137 30-390 limits assumed, chain 2 of 2) above, with S308A counted along it
Protocol: as §1, §2

[17] = target: GARP / TGF-β1 K338E complex (human, UniProt Q14392 20-662; P01137 30-390); test: as above
Chain of GARP / TGF-β1 K338E complex (Q14392 20-662 limits assumed, chain 1 of 2): as the sequence (Q14392 20-662 R170A limits assumed, chain 1 of 2) above, with A151R counted along it
Chain of GARP / TGF-β1 K338E complex (P01137 30-390 K338E limits assumed, chain 2 of 2): as the sequence (P01137 30-390 limits assumed, chain 2 of 2) above, with K309E counted along it
Protocol: as §1, §2

T1 sequence (P01137 30-390 limits assumed): as the sequence (P01137 30-390 limits assumed, chain 2 of 2) above

- binding result (human TGF-β1 (latent)): no binding
- binding result [1]: no binding
- binding result [2]: no binding
- binding result [3]: no binding
- binding result [4]: no binding
- ratio of EC50 (mutant vs WT) [5]: ≤ 2 ratio
- ratio of EC50 (mutant vs WT) [6]: ≤ 2 ratio
- ratio of EC50 (mutant vs WT) [7]: > 2 ratio
- ratio of EC50 (mutant vs WT) [8]: > 2 ratio
- ratio of EC50 (mutant vs WT) [9]: ≤ 2 ratio
- ratio of EC50 (mutant vs WT) [10]: ≤ 2 ratio
- ratio of EC50 (mutant vs WT) [11]: ≤ 2 ratio
- ratio of EC50 (mutant vs WT) [12]: ≤ 2 ratio
- ratio of EC50 (mutant vs WT) [13]: ≤ 2 ratio
- ratio of EC50 (mutant vs WT) [14]: ≤ 2 ratio
- ratio of EC50 (mutant vs WT) [15]: ≤ 2 ratio
- ratio of EC50 (mutant vs WT) [16]: ≤ 2 ratio
- ratio of EC50 (mutant vs WT) [17]: ≤ 2 ratio
B1: LHG-10 (antibody, human IgG1, V domains shown)
VH: EVQLVQPGAELRNSGASVKVSCKASGYRFTSYYIDWVRQAPGQGLEWMGRIDPEDGGTKYAQKFQGRVTFTADTSTSTAYVELSSLRSEDTAVYYCARNEWETVVVGDLMYEYEYWGQGTQVTVSS
VL: DIQMTQSPTSLSASLGDRVTITCQASQSISSYLAWYQQKPGQAPKLLIYGASRLQTGVPSRFSGSGSGTSFTLTISGLEAEDAGTYYCQQYDSLPVTFGQGTKVELK
notes: llama-derived V regions in a full human IgG1
